Source: publication PMC5069622, “Crystal structure of human aldehyde dehydrogenase 1A3 complexed with NAD^+ and retinoic acid” (Scientific Reports, 2016)

Molecular target: the molecule itself
Assay: SEC; gel filtration of the purified protein, data not shown; native molecular mass of about 224000 Da

B1: human aldehyde dehydrogenase 1A3 (enzyme, UniProt P47895 1-512, looked up)
chain: MATANGAVENGQPDRKPPALPRPIRNLEVKFTKIFINNEWHESKSGKKFATCNPSTREQICEVEEGDKPDVDKAVEAAQVAFQRGSPWRRLDALSRGRLLHQLADLVERDRATLAALETMDTGKPFLHAFFIDLEGCIRTLRYFAGWADKIQGKTIPTDDNVVCFTRHEPIGVCGAITPWNFPLLMLVWKLAPALCCGNTMVLKPAEQTPLTALYLGSLIKEAGFPPGVVNIVPGFGPTVGAAISSHPQINKIAFTGSTEVGKLVKEAASRSNLKRVTLELGGKNPCIVCADADLDLAVECAHQGVFFNQGQCCTAASRVFVEEQVYSEFVRRSVEYAKKRPVGDPFDVKTEQGPQIDQKQFDKILELIESGKKEGAKLECGGSAMEDKGLFIKPTVFSEVTDNMRIAKEEIFGPVQPILKFKSIEEVIKRANSTDYGLTAAVFTKNLDKALKLASALESGTVWINCYNALYAQAPFGGFKMSGNGRELGEYALAEYTEVKTVTIKLGDKNP
notes: human ALDH1A3, full-length open reading frame amplified from cDNA of the mesenchymal glioma stem cell line 83 and cloned into pDEST17; predicted molecular weight 56108 Da; Crystallised after pre-incubation with 1 mM NAD+ and 1 mM all-trans retinoic acid; No removal of the His tag is described; In the crystal no density for the N-terminal portion and the last four residues; also called ALDH1A3; …
  stoichiometry N: 4
